Test system: peptide library, one residue held at a place counted from the S/T acceptor
Experiment: relative phosphorylation of the sub-library (ratio to the mean residue at this position); higher = residue favoured
Settings: human
Method in brief: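 Purified recombinant kinases, either human or orthologue constructs, were incubated in 384-well plates with biotinylated degenerate peptide sub-libraries. Each sub-library fixed one residue at one position around a central Ser/Thr. Peptides at 50 μM and 50 μM ATP spiked with γ-32P-ATP were used for 90 min under kinase-specific conditions, and spots on streptavidin membranes were phosphorimaged and quantified by densitometry. Relative sub-library phosphorylation is expressed as a ratio to the mean residue at that position.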

Chain of PRKD1, construct: Full length (Q15139 whole entry, looked up): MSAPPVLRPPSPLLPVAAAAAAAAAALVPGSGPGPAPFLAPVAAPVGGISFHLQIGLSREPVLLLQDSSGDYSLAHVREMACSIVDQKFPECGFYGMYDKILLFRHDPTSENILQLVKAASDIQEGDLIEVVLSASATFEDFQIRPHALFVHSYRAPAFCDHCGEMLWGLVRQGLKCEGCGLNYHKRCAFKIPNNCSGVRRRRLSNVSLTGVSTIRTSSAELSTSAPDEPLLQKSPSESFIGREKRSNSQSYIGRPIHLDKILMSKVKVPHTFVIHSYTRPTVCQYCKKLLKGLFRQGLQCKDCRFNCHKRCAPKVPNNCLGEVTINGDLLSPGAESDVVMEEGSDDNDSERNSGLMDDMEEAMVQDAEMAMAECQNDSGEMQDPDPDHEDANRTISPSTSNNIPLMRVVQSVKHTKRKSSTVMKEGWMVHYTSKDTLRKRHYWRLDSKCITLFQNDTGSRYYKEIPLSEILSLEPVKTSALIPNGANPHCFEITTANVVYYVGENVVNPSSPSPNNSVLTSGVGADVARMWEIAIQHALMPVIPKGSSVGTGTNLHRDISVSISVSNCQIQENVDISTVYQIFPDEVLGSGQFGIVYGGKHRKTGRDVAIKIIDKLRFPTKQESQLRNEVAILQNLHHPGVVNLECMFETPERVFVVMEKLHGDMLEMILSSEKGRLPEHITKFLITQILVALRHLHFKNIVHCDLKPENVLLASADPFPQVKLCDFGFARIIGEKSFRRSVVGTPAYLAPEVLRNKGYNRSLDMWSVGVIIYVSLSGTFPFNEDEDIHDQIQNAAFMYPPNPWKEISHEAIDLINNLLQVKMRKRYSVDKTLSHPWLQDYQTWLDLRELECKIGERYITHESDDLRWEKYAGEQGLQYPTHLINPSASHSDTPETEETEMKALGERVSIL
Chain of PRKD3, construct: Full length (O94806 whole entry, looked up): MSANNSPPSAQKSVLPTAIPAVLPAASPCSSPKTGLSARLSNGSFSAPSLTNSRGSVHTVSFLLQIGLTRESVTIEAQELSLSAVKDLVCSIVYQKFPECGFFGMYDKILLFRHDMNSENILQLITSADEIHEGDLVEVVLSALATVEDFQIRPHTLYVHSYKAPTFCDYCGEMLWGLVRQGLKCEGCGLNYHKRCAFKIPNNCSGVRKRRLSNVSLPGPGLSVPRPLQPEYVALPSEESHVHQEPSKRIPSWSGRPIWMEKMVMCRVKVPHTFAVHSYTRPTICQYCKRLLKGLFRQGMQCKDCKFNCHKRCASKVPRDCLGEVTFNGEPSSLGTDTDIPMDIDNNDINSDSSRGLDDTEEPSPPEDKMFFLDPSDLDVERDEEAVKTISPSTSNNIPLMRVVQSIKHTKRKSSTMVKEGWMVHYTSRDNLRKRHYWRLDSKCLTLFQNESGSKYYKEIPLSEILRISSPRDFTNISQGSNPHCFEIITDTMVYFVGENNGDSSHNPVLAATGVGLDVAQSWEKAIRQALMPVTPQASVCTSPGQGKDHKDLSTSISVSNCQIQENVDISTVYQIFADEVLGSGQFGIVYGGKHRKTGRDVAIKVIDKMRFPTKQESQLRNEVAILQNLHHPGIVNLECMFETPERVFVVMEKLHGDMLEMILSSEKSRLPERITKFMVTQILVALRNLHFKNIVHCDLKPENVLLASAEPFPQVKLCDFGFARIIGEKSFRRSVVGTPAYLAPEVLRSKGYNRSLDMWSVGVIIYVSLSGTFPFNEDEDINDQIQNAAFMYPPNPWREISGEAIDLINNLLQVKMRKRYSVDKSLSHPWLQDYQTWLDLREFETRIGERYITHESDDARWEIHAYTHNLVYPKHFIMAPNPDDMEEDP
Chain of PRKAA2, construct: Full length (P54646 whole entry, looked up): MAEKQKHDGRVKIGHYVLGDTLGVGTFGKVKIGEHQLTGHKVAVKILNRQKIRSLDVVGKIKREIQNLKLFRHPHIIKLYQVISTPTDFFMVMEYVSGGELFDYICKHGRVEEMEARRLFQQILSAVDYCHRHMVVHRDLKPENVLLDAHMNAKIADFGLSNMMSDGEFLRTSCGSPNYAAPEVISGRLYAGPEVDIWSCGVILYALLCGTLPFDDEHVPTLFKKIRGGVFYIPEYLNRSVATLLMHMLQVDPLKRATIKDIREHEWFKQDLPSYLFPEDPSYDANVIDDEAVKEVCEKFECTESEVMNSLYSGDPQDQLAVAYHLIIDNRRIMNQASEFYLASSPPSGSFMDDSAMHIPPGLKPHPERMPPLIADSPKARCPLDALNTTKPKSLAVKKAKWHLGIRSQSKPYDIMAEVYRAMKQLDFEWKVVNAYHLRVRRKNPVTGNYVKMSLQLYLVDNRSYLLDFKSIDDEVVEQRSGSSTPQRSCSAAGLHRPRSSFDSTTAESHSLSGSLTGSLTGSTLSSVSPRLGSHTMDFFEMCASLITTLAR

PRKAA2, construct: Full length (from UniProt P54646)
relative phosphorylation
Settings	at +1	at +2	at +3	at +4	at -1	at -2	at -3	at -4	at -5
A fixed	1.05	1.53	0.803	0.597	1.14	1.34	0.699	1.19	0.889
D fixed	0.54	0.575	1.53	0.614	0.593	0.42	0.258	0.419	0.336
E fixed	0.708	0.492	0.805	0.454	0.495	0.427	0.368	0.546	0.308
F fixed	1.88	0.855	1.01	1.27	0.734	0.655	0.4	0.67	1.3
G fixed	0.711	0.724	0.933	0.637	1.38	0.933	0.739	1.13	0.815
H fixed	1.15	1.48	2.39	0.747	1.12	1.18	1.26	1.26	0.8
I fixed	0.565	1.19	0.531	2.12	0.339	0.925	0.335	0.577	1.42
K fixed	1.01	0.689	1.01	0.777	1.9	1.62	2.75	2.22	1.27
L fixed	0.814	1.29	0.677	2.7	0.714	0.548	0.398	0.692	1.64
M fixed	1.33	0.833	0.693	2.04	0.978	0.575	0.473	0.928	1.51
N fixed	0.942	1.18	1.69	0.864	1.16	1.93	0.821	0.801	0.684
P fixed	0.269	1.37	0.41	0.789	1.51	0.826	0.991	1.31	0.964
Q fixed	1.41	1.03	0.978	0.806	1.22	0.981	0.851	0.874	0.825
R fixed	1.23	0.652	1.06	0.618	1.58	1.84	5.14	2.31	1.89
V fixed	0.779	1.34	0.506	0.876	0.49	1.47	0.365	0.7	0.769
W fixed	1.35	0.966	1.16	0.617	0.73	0.661	0.559	0.666	0.723
Y fixed	1.27	0.806	0.808	0.479	0.903	0.676	0.596	0.713	0.854
pThr fixed	0.69	0.503	0.35	0.709	0.324	0.504	0.49	0.644	0.588
pTyr fixed	0.649	0.452	0.57	0.529	0.607	0.533	0.471	0.475	0.696

PRKD1, construct: Full length (from UniProt Q15139)
relative phosphorylation
Settings	at +1	at +2	at +3	at +4	at -1	at -2	at -3	at -4	at -5
A fixed	0.979	1.13	0.873	1.1	0.938	1.9	1.38	1.82	1.63
D fixed	0.653	1.21	1.14	1.37	0.869	0.32	0.243	0.514	0.411
E fixed	0.53	0.784	0.839	1.05	0.564	0.578	0.347	0.925	0.362
F fixed	0.964	0.86	0.811	0.885	0.467	0.609	0.47	0.792	0.668
G fixed	1.19	1.52	1.75	1.39	0.878	0.682	0.919	1.86	0.708
H fixed	1.05	1.04	0.95	1.23	0.823	0.726	0.802	0.897	0.506
I fixed	0.989	0.505	0.669	0.601	0.383	0.552	0.284	0.694	1.03
K fixed	0.619	0.518	0.582	0.651	1.79	1.78	1.46	1.09	0.414
L fixed	1.02	0.66	0.887	0.674	0.863	0.735	0.346	0.791	3.41
M fixed	1.22	0.946	0.886	0.924	0.945	1.79	0.653	1.25	0.713
N fixed	2.19	1.9	1.2	1.31	2.05	0.912	0.829	0.831	0.537
P fixed	0.369	1.81	2.37	1.46	2.43	0.593	1.49	0.656	1.34
Q fixed	1.47	1.1	1.13	1.25	1.27	2.26	0.865	1.26	0.953
R fixed	0.537	0.486	0.364	0.436	0.703	1.46	5.06	1.12	1.29
V fixed	1.04	0.688	0.735	0.624	0.613	1.01	0.411	0.844	1.61
W fixed	0.966	0.971	0.889	0.963	0.535	0.455	0.677	0.787	0.538
Y fixed	1.22	0.86	0.926	1.07	0.873	0.644	0.777	0.857	0.878
pThr fixed	0.596	0.624	0.842	0.939	0.207	0.27	0.295	0.467	0.28
pTyr fixed	0.774	0.836	0.826	1.12	0.69	0.357	0.306	0.533	0.624

PRKD3, construct: Full length (from UniProt O94806)
relative phosphorylation
Settings	at +1	at +2	at +3	at +4	at -1	at -2	at -3	at -4	at -5
A fixed	0.865	1.03	0.829	0.85	0.845	1.21	1.03	1.31	0.989
D fixed	0.493	0.636	0.664	0.709	0.598	0.341	0.231	0.402	0.344
E fixed	0.444	0.536	0.561	0.66	0.486	0.418	0.272	0.711	0.332
F fixed	1.09	1.07	1	1.09	0.812	0.56	0.417	0.797	0.895
G fixed	0.727	1.06	1.17	1.21	0.6	0.453	0.375	1.21	0.563
H fixed	1.33	1.36	1.22	1.29	1.15	0.839	0.572	1.14	0.525
I fixed	1.02	0.628	0.744	0.795	0.526	0.496	0.321	0.678	1.11
K fixed	1.31	1.27	1.21	1.22	2.07	2.85	2.2	1.98	0.895
L fixed	1.06	0.824	0.957	0.908	1.18	0.867	0.359	0.809	3.37
M fixed	1.16	0.929	0.883	0.854	1.03	1.43	0.444	1.15	0.774
N fixed	1.48	1.26	1.02	1.1	1.38	0.795	0.418	0.649	0.483
P fixed	0.453	1.24	1.72	1.31	1.1	0.374	0.478	0.476	1.08
Q fixed	1.08	0.877	0.984	1.1	0.889	1.83	0.588	1.16	0.866
R fixed	1.28	1.38	1.05	0.774	1.79	2.58	8.02	2.12	1.8
V fixed	0.988	0.718	0.812	0.774	0.751	0.778	0.333	0.85	1.61
W fixed	0.885	1.05	0.991	1.31	0.708	0.526	0.436	0.638	0.544
Y fixed	1.35	1.12	1.19	1.04	1.08	0.657	0.51	0.934	0.827
pThr fixed	0.532	0.513	0.622	0.51	0.321	0.349	0.266	0.508	0.377
pTyr fixed	0.589	0.609	0.669	0.608	0.662	0.409	0.495	0.511	0.572

From the supplement of paper PMC9876800
